# Test results reported in paper PMC6535971 (ACS Central Science, 2019).
# Residue numbers refer to the chain shown, from its start. Where no end group is shown, it is not given here.
# T1: MjYcaO (Methanocaldococcus jannaschii, UniProt Q58494)
# T1 sequence (Q58494 1-385): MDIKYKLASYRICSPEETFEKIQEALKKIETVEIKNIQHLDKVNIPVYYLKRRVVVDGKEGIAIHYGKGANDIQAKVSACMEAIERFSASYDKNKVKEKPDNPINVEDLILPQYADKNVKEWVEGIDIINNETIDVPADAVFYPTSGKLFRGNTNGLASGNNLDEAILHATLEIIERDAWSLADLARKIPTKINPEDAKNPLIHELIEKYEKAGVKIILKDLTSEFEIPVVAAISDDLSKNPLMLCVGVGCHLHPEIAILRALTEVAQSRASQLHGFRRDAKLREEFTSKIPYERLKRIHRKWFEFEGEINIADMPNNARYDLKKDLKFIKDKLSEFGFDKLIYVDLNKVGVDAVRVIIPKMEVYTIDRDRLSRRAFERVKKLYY
# T2: Methanocaldococcus jannaschii YcaO (MjYcaO), wild type (Methanocaldococcus jannaschii, UniProt Q58494 1-385)
# T2 sequence: T1 sequence (Q58494 1-385)
# T3: MjYcaO W303A variant (Methanocaldococcus jannaschii, UniProt Q58494 1-385, W303A)
# T3 sequence: T1 sequence (Q58494 1-385) with W303A
# T4: MjYcaO W180F variant (Methanocaldococcus jannaschii, UniProt Q58494 1-385, W180F)
# T4 sequence: T1 sequence (Q58494 1-385) with W180F
# T5: MjYcaO W180V variant (Methanocaldococcus jannaschii, UniProt Q58494 1-385, W180V)
# T5 sequence: T1 sequence (Q58494 1-385) with W180V
# T6: MjYcaO Y66A variant (Methanocaldococcus jannaschii, UniProt Q58494 1-385, Y66A)
# T6 sequence: T1 sequence (Q58494 1-385) with Y66A
# T7: MjYcaO Y66F variant (Methanocaldococcus jannaschii, UniProt Q58494 1-385, Y66F)
# T7 sequence: T1 sequence (Q58494 1-385) with Y66F
# T8: MjYcaO Y66L variant (Methanocaldococcus jannaschii, UniProt Q58494 1-385, Y66L)
# T8 sequence: T1 sequence (Q58494 1-385) with Y66L
# T9: MjYcaO Y66G variant (Methanocaldococcus jannaschii, UniProt Q58494 1-385, Y66G)
# T9 sequence: T1 sequence (Q58494 1-385) with Y66G
# What was measured:
# [1] = biological target: Methanocaldococcus jannaschii YcaO (MjYcaO), wild type (Methanocaldococcus jannaschii) (UniProt Q58494); assay: fluorescence polarisation
# [2] = biological target: T1, MjYcaO; assay: Competition FP binding assay; settings: competitive FP, MBP-tagged 11-mer variant against FITC-labeled 11-mer peptide
# [3] = biological target: T1, MjYcaO; assay: Cyclodehydration reaction, MALDI-TOF-MS; format: biochemical; settings: wild-type MjYcaO and ATP at pH 7.5, no added anion
# [4] = test system: MkYcaO; assay: Cyclodehydration reaction, MALDI-TOF-MS; format: biochemical, Methanopyrus kandleri; settings: pH 7.0 with additional phosphate
# [5] = biological target: T2, Methanocaldococcus jannaschii YcaO …; assay: crystal structure
# [6] = biological target: T2, Methanocaldococcus jannaschii YcaO …; assay: fluorescence polarisation
# [7] = biological target: T3, MjYcaO W303A variant; assay: fluorescence polarisation
# [8] = biological target: T4, MjYcaO W180F variant; assay: fluorescence polarisation
# [9] = biological target: T5, MjYcaO W180V variant; assay: fluorescence polarisation
# [10] = biological target: T6, MjYcaO Y66A variant; assay: fluorescence polarisation
# [11] = biological target: T7, MjYcaO Y66F variant; assay: fluorescence polarisation
# [12] = biological target: T8, MjYcaO Y66L variant; assay: fluorescence polarisation
# [13] = biological target: T9, MjYcaO Y66G variant; assay: fluorescence polarisation
# [14] = biological target: T2, Methanocaldococcus jannaschii YcaO …; assay: fluorescence polarisation; remark: listed apart in the source
molecule,measurement,setting,value
"MBP-tagged MjMcrA peptide, Leu(-4) to Ala",fold increase in Ki against the wild-type peptide,[1],> 6 fold
MjMcrA Y(+1)S 11-mer peptide,fold increase in Ki against the wild-type peptide,[1],2 fold
MjMcrA Y(+1)C 11-mer peptide …,fold increase in Ki against the wild-type peptide,[1],2 fold
"MBP-tagged MjMcrA peptide, D(+2)A variant",fold increase in Ki against the wild-type peptide,[1],4 fold
"MBP-tagged MjMcrA peptide, F(-2)A variant",fold increase in Ki against the wild-type peptide,[1],3 fold
RLGFYGCDLQD [Y(+1)C 11-mer],increase in Ki relative to wild-type,[2],2 fold
same,cyclodehydration (change of peptide mass),[3],almost no change
same,cyclodehydration,[4],enzyme-dependent conversion to the dehydrated species
"MBP-tagged MjMcrA peptide, Gly(-3) to Ala",fold increase in Ki against the wild-type peptide,[1],> 6 fold
RLGFYGYDLQD [MjMcrA 11-mer peptide RLGFYGYDLQD],binding result,[5],binds
RLGFYGYDLQD (not fully specified (N-terminus); also: FITC label (site not given here)) [FITC-labeled 11-mer MjMcrA peptide RLGFYGYDLQD (without the double Gly linker)],binding result,[6],binds
GGRLGFYGYDLQD (not fully specified (N-terminus); also: FITC label (site not given here)) [FITC-labeled 13-mer MjMcrA peptide GG-RLGFYGYDLQD],binding result,[7],binds
same,binding result,[8],binds
same,binding result,[9],binds
same,binding result,[10],binds
same,binding result,[11],binds
same,binding result,[12],binds
same,binding result,[13],binds
same,binding result,[14],binds
